The values that follow are results of earlier work, collected in PMC4517114.

For series [1], the target named is MAGI-1 PDZ (Homo sapiens) (UniProt Q96QZ7).
The target is the same in series [2]. This is another data set of the same source.

Where two headings read alike, the source gives them in different places.

Sequence of UniProt Q96QZ7 (Q96QZ7 472-554): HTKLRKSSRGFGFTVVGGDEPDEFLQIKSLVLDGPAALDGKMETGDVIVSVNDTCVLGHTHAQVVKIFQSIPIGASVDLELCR

HPV18 E6 (from UniProt P06463): in series [1], the Kd is 1500 nM. HPV16 E6 (from UniProt P03126): the Kd in series [2] was 3000 nM.

Broadly, the Kd is the constant that tells how readily two partners part at equilibrium.
